Broadly, the stoichiometry N is the number of molecules, sites or subunits per partner or assembly.

The record followed here is paper PMC4562812.

The target of the assay is full-length recombinant H7 hemagglutinin (rH7) of A/Anhui/1/2013 (H7N9) virus (influenza A virus A/Anhui/1/2013 (H7N9)). Put plainly: SEC. In general terms: In gel filtration, larger molecules generally elute earlier.

Consider “full-length recombinant H7 hemagglutinin (rH7) of A/Anhui/1/2013 (H7N9) virus (natural protein)”, for which the stoichiometry N worked out at 3.
